Measured values taken from patent US20130178605A1 (GLENMARK PHARMACEUTICALS S A, published 2013).

T1: human CD19 cell-surface protein (on Raji cells) (human, UniProt P15391 20-556)
T1 construct: whole, on cells; also called hCD19
T1 sequence (looked up): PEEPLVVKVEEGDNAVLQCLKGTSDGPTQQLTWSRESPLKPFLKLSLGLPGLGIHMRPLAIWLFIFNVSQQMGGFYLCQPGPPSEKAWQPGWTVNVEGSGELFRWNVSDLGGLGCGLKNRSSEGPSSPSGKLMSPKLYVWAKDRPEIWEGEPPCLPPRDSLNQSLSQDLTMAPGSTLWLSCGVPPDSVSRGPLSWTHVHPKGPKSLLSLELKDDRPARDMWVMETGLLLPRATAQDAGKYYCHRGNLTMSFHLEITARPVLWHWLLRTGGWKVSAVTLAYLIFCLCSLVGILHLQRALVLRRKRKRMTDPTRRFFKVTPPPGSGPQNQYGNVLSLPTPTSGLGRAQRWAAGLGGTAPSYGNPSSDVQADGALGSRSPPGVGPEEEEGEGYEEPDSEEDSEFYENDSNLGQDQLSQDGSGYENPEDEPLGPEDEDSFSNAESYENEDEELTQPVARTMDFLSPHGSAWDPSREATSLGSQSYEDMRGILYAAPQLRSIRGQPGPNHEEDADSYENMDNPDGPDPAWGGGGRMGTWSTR


Legend:
[1] = biological target: T2, VL-Fc (BTB)-F405A-K409R chain; assay: co-expression in HEK293-EBNA, protein-A purification, non-reducing SDS-PAGE scanning densitometry, impurities omitted
T2 construct: Human IGHG1 Fc chain with the named substitutions (EU numbering), fused to a variable light-chain kappa domain antibody

[2] = biological target: T3, VL-Fc (BTB)-Y407S-K409R chain; assay: as above
T3 construct: Human IGHG1 Fc chain with the named substitutions (EU numbering), fused to a variable light-chain kappa domain antibody

[3] = biological target: T4, VL-Fc (BTB)-F405A-Y407S chain; assay: as above
T4 construct: Human IGHG1 Fc chain with the named substitutions (EU numbering), fused to a variable light-chain kappa domain antibody

[4] = biological target: T5, VL-Fc (BTB)-F405A-Y407S-K409R-T411R chain; assay: as above
T5 construct: Human IGHG1 Fc chain with the named substitutions (EU numbering), fused to a variable light-chain kappa domain antibody

[5] = biological target: T6, VL-Fc (BTB)-F405A-Y407S-K409R chain; assay: as above
T6 construct: Human IGHG1 Fc chain with the named substitutions (EU numbering), fused to a variable light-chain kappa domain antibody

VL-Fc IGHGA chain = biological target: T7, VL-Fc IGHGA chain; assay: co-expression in HEK293-EBNA, protein-A purification, non-reducing SDS-PAGE scanning densitometry
T7 construct: Human IGHG1 Fc chain with CH3 substitutions S364T, K392L, T394W, K409I, T411R (EU numbering), fused to VL

VL-BT gamma chain = assay: as above
[6] = biological target: T8, VL-Fc (BTB)-K409R-T411R chain; assay: co-expression in HEK293-EBNA, protein-A purification, non-reducing SDS-PAGE scanning densitometry, impurities omitted
T8 construct: Human IGHG1 Fc chain with the named substitutions (EU numbering), fused to a variable light-chain kappa domain antibody

[7] = biological target: T1, human CD19 cell-surface protein (on …); assay: flow cytometry on Raji cells (CD19+ VLA2-), 10 µg/ml, detected by c-myc tag (FIG. 31A) and by His tag (FIG. 31B)
VL-BT beta F405A chain = assay: co-expression in HEK293-EBNA, protein-A purification, non-reducing SDS-PAGE scanning densitometry
[8] = biological target: T9, alpha 2 subunit of the human VLA-2 receptor (on HT1080 cells) (human, UniProt P17301 30-1181); assay: flow cytometry on HT1080 cells, detected with mouse anti c-myc tag antibody
T9 construct: whole, on cells; also called hVLA2

[9] = biological target: T1, human CD19 cell-surface protein (on …); assay: flow cytometry on Raji cells, detected with mouse anti His tag antibody

Row | hetero-dimer formation percentage [1] [%] | hetero-dimer formation percentage [2] [%] | hetero-dimer formation percentage [3] [%] | hetero-dimer formation percentage [4] [%] | hetero-dimer formation percentage [5] [%] | Binder | other results
1 | 4 | 5 | 7 | 9 | 15 | Fc (BTA)-F405S-Y407V-K409W-T411N chain (other, Human IGHG1 Fc chain with the named substitutions (EU numbering)) DKTHTCPPCPAPELLGGPSVFLFPPKPKDTLMISRTPEVTCVVVDVSHEDPEVKFNWYVDGVEVHNAKTKPREEQYNSTYRVVSVLTVLHQDWLNGKEYKCKVSNKALPAPIEKTISKAKGQPREPQVYTLPPSRDELTKNQVSLTCLVKGFYPSDIAVEWESNGQPENNYKTTPPVLDSDGSFSLVSWLNVDKSRWQQGNVFSCSVMHEALHNHYTQKSLSLSPGK | 
2 |  |  |  |  |  | Fc IGHAG chain (other, Human IGHG1 Fc chain with CH3 substitutions Q347E, Y349H, K370R, V397R, D399E, F405A, Y407T (EU numbering)) DKTHTCPPCPAPELLGGPSVFLFPPKPKDTLMISRTPEVTCVVVDVSHEDPEVKFNWYVDGVEVHNAKTKPREEQYNSTYRVVSVLTVLHQDWLNGKEYKCKVSNKALPAPIEKTISKAKGQPREPEVHTLPPSRDELTKNQVSLTCLVRGFYPSDIAVEWESNGQPENNYKTTPPRLESDGSFALTSKLTVDKSRWQQGNVFSCSVMHEALHNHYTQKSLSLSPGK | hetero-dimer percent of the protein-A purified material (VL-Fc IGHGA chain): ≥ 54%
3 |  |  |  |  |  | BT delta chain (other) DKTHTCPPCPAPELLGGPSVFLFPPKPKDTLMISRTPEVTCVVVDVSHEDPEVKFNWYVDGVEVHNAKTKPREEQYNSTYRVVSVLTVLHQDWLNGKEYKCKVSNKALPAPIEKTISKAKGQPREPQVYTMPPSRDELTKNQVNLACLVKEFYPSDIAVEWESNGQPENNYFTAPPVLSSDGSFNLVSLLKVDKSRWQQGNVFSCSVMHEALHNHYTQKSLSLSPGK | hetero-dimer percent of the protein-A purified material (VL-BT gamma chain): ≥ 52.1%
4 | 25 | 25 | 50 | 53 | 52 | Fc (BTA)-Y407V-K409W-T411N chain (other, Human IGHG1 Fc chain with the named substitutions (EU numbering)) DKTHTCPPCPAPELLGGPSVFLFPPKPKDTLMISRTPEVTCVVVDVSHEDPEVKFNWYVDGVEVHNAKTKPREEQYNSTYRVVSVLTVLHQDWLNGKEYKCKVSNKALPAPIEKTISKAKGQPREPQVYTLPPSRDELTKNQVSLTCLVKGFYPSDIAVEWESNGQPENNYKTTPPVLDSDGSFFLVSWLNVDKSRWQQGNVFSCSVMHEALHNHYTQKSLSLSPGK | 
5 | 60 | 74 | 90 | 88 | 72 | Fc (BTA)-S364K-T366V-K370T-K392Y-K409W-T411N chain (other, Human IGHG1 Fc chain with the named substitutions (EU numbering)) DKTHTCPPCPAPELLGGPSVFLFPPKPKDTLMISRTPEVTCVVVDVSHEDPEVKFNWYVDGVEVHNAKTKPREEQYNSTYRVVSVLTVLHQDWLNGKEYKCKVSNKALPAPIEKTISKAKGQPREPQVYTLPPSRDELTKNQVKLVCLVTGFYPSDIAVEWESNGQPENNYYTTPPVLDSDGSFFLYSWLNVDKSRWQQGNVFSCSVMHEALHNHYTQKSLSLSPGK | hetero-dimer formation percentage [6]: 32%
6 |  |  |  |  |  | anti-hCD19_anti-hVLA2 bispecific antibody (bispecific antibody, human IgG1, kappa, Four distinct chains; also called anti-hCD19_anti-VLA2 bispecific antibody) heavy 1: QVQLQESGPGLVKPSETLSLTCTVSGFSLTNYGIHWIRQPPGKGLEWLGVIWARGFTNYNSALMSRLTISKDNSKNQVSLKLSSVTAADTAVYYCARANDGVYYAMDYWGQGTLVTVSSASTKGPSVFPLAPSSKSTSGGTAALGCLVKDYFPEPVTVSWNSGALTSGVHTFPAVLQSSGLYSLSSVVTVPSSSLGTQTYICNVNHKPSNTKVDKKVEPKSCDKTHTCPPCPAPELLGGPSVFLFPPKPKDTLMISRTPEVTCVVVDVSHEDPEVKFNWYVDGVEVHNAKTKPREEQYNSTYRVVSVLTVLHQDWLNGKEYKCKVSNKALPAPIEKTISKAKGQPREPQVYTLPPSRDELTKNQVKLVCLVTGFYPSDIAVEWESNGQPENNYYTTPPVLDSDGSFSLVSWLNVDKSRWQQGNVFSCSVMHEALHNHYTQKSLSLSPGKHHHHHH light 1: DFVMTQSPAFLSVTPGEKVTITCSAQSSVNYIHWYQQKPDQAPKKLIYDTSKLASGVPSRFSGSGSGTDYTFTISSLEAEDAATYYCQQWTTNPLTFGQGTKVEIKRTVAAPSVFIFPPSDEQLKSGTASVVCLLNNFYPREAKVQWKVDNALQSGNSQESVTEQDSKDSTYSLSSTLTLSKADYEKHKVYACEVTHQGLSSPVTKSFNRGEC heavy 2: QVQLVQSGGGVVQPGRSLRLSCAASGVSLPDYGVSWVRQAPGKGLEWVAVIWGSETTYYNSALKSRFTISRDNSKNTLYLQMNSLRAEDTAVYYCAKHYYYGGSYAMDYWGQGTLVTVSSASTKGPSVFPMAPSSKSTSGGTANLACLVKEYFPEPVTVSWNSGALTSGVFTAPAVLSSSGLYNLVSLVKVPSSSLGTQTYICNVNHKPSNTKVDKKVEPKSCDKTHTCPPCPAPELLGGPSVFLFPPKPKDTLMISRTPEVTCVVVDVSHEDPEVKFNWYVDGVEVHNAKTKPREEQYNSTYRVVSVLTVLHQDWLNGKEYKCKVSNKALPAPIEKTISKAKGQPREPEVATFPPSRDELTKNQVTLVCLVTGFYPSDIAVEWESNGQPENNYKTDPPLLESDGSFALSSRLRVDKSRWQQGNVFSCSVMHEALHNHYTQKSLSLSPGKEQKLISEEDLN light 2: DIQMTQSPSSLSASVGDRVTITCRASQDISKYLNWYQQKPGKAIKLLIYHTSRLHSGVPSRFSGSGSGTDFTLTISSLQPEDFATYYCQQGATLPYTFGPGTKVDIKRTVAAPKVTIFPPSDEQLKSGTATVLCLLEKFYPREAKVQWKVDNALQSGNSQEGVMEQDSKDSTYMLFSWLTLSKADYEKHKVYACEVTHQGLSSPVTKSFNRGEC | binding result [7]: binds
7 |  |  |  |  |  | BT alpha IGHG3 chain (other) DKTHTCPPCPAPELLGGPSVFLFPPKPKDTLMISRTPEVTCVVVDVSHEDPEVKFNWYVDGVEVHNAKTKPREEQYNSTYRVVSVLTVLHQDWLNGKEYKCKVSNKALPAPIEKTISKAKGQPREPQVYTLPPSREEMTKNQVKLVCLVTGFYPSDIAVEWESSGQPENNYYTTPPMLDSDGSFSLVSWLNVDKSRWQQGNIFSCSVMHEALHNRFTQKSLSLSPGK | hetero-dimer percent of the protein-A purified material (VL-BT beta F405A chain): ≥ 91%
8 |  |  |  |  |  | anti-hCD19 antibody (antibody, human IgG1, V domains shown, Control with a single specificity, obtained by co-transfection of chain three with chain four of the bispecific antibody) VH: QVQLVQSGGGVVQPGRSLRLSCAASGVSLPDYGVSWVRQAPGKGLEWVAVIWGSETTYYNSALKSRFTISRDNSKNTLYLQMNSLRAEDTAVYYCAKHYYYGGSYAMDYWGQGTLVTVSS VL: DIQMTQSPSSLSASVGDRVTITCRASQDISKYLNWYQQKPGKAIKLLIYHTSRLHSGVPSRFSGSGSGTDFTLTISSLQPEDFATYYCQQGATLPYTFGPGTKVDIKR | binding result [8]: no binding
9 |  |  |  |  |  | anti-hVLA2 antibody (antibody, human IgG1, kappa, V domains shown, Control with a single specificity, obtained by co-transfection of chain one with chain two of the bispecific antibody) VH: QVQLQESGPGLVKPSETLSLTCTVSGFSLTNYGIHWIRQPPGKGLEWLGVIWARGFTNYNSALMSRLTISKDNSKNQVSLKLSSVTAADTAVYYCARANDGVYYAMDYWGQGTLVTVSS VL: DFVMTQSPAFLSVTPGEKVTITCSAQSSVNYIHWYQQKPDQAPKKLIYDTSKLASGVPSRFSGSGSGTDYTFTISSLEAEDAATYYCQQWTTNPLTFGQGTKVEIKR | binding result [9]: no binding
